Data: PMC4376459, “CXCR3 antagonist VUF10085 binds to an intrahelical site distinct from that of the broad spectrum antagonist TAK-779” (British Journal of Pharmacology, 2015)
Positions count from the first letter of the chain named.

T1: CXCR3 I279A (Homo sapiens, UniProt P49682, I279A)
T1 construct: expressed in transfected cells; host or cells: murine pre-B cell line L1.2, transient transfection
T1 sequence (P49682 1-368 I279A): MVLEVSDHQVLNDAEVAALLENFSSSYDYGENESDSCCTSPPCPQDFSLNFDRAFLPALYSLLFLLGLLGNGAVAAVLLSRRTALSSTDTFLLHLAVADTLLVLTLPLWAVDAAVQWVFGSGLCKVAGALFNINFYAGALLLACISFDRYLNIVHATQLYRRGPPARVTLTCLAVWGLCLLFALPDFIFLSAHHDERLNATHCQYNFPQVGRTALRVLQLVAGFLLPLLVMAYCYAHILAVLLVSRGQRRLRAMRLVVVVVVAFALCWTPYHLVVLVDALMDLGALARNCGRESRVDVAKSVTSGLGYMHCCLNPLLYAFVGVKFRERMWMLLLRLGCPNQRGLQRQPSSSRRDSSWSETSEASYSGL

T2: CXCR3 (Homo sapiens, UniProt P49682)
T2 sequence (P49682 1-368): T1 sequence (P49682 1-368 I279A) with A279I

T3: CXCL11 (Homo sapiens, UniProt O14625)
T3 chain: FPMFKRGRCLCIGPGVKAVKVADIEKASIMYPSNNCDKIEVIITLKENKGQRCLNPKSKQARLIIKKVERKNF

B1: CXCR3 (protein)
chain: T1 sequence (P49682 1-368 I279A) with Y205A, A279I
B2: CXCR3 (protein)
chain: T1 sequence (P49682 1-368 I279A) with H202A, A279I
B3: CXCR3 (protein)
chain: T1 sequence (P49682 1-368 I279A) with A279I
B4: CXCR3 (protein)
chain: T1 sequence (P49682 1-368 I279A) with V275A, A279I
B5: CXCR3 (protein)
chain: T1 sequence (P49682 1-368 I279A) with Y60A, A279I
B6: CXCR3 (protein)
chain: T1 sequence (P49682 1-368 I279A) with F131A, A279I

How the values were obtained:
CXCR3 I279A = biological target: T1, CXCR3 I279A; assay: Whole-cell 125I-CXCL11 binding assay, L1.2 transfectants; conditions: I279A versus WT
CXCR3 = biological target: T2, CXCR3; assay: Activity at CXCR3 (data not shown)
CXCL11 = biological target: T3, CXCL11; assay: homologous competition binding with 125I-CXCL11 on L1.2 transfectants

| Molecule | Kd (CXCL11) | other results |
| --- | --- | --- |
| CCOc1ccc(-n2c(C(C)N(Cc3cccnc3)C(=O)Cc3ccc(OC(F)(F)F)cc3)nc3ncccc3c2=O)cc1 (stereo not drawn) [VUF 10085, N-1R-[3-(4-ethoxy-phenyl)-4-oxo-3,4-dihydro-pyrido[2,3-d]pyrimidin-2-yl]-ethyl-N-pyridin-3-ylmethyl-2-(4-trifluoromethoxy-phenyl)-acetamide] |  | decrease in potency, ligand binding (CXCR3 I279A): twofold |
| CCCCOCCOc1ccc(-c2ccc3c(c2)/C=C(/C(=O)Nc2ccc([S@@+]([O-])Cc4cncn4CCC)cc2)CCCN3CC(C)C)cc1 [TAK-652] |  | activity at CXCR3 (CXCR3): devoid of activity |
| B1 | 10.4 nM |  |
| B2 | 2.9 nM |  |
| B3 | 7.7 nM |  |
| B4 | 7.4 nM |  |
| B5 | 1.8 nM |  |
| B6 | 1.1 nM |  |
